Data: patent US20140234868A1, “USE FOR GLYCOLIPOPROTEIN GINTONIN, ISOLATED AND IDENTIFIED FROM GINSENG, AS A NATURAL MEDICAL-PLANT DERIVED LIGAND” (KONKUK UNIVERSITY INDUSTRIAL COOPERATION CORP., priority 2011, published 2014)

Tests used:
[1] = system: mice; experiment: Busulfan-caused diarrhea and mucositis in mice; assay type: in vivo, mouse; conditions: for Diarrhea (cases / mice) / Mucositis (cases / mice): gintonin 100 mg/kg oral 3 days before, observed 10 days
Procedure: In this Example, an examination was made of the inhibitory activity of gintonin against chemotherapy-induced diarrhea and mucositis. For this, gintonin-treated mice were administered with busulfan, and observed for diarrhea and mucostitis.
Briefly, mice were orally administered at a dose of 100 mg/kg with gintonin 3 days before intraperitoneal injection with busulfan (40 mg/kg). For the control, physiological saline was used, instead of gintonin.

[2] = biological target: LPA4 receptor (Homo sapiens, UniProt Q99677); experiment: Intracellular free Ca2+ (Fura-2AM) in LPA4-expressing B103 cells; assay type: cell-based; set-up: host or cells: B103 rat neuroblastoma cells; conditions: gintonin
Chain of LPA4 receptor (Q99677 whole entry): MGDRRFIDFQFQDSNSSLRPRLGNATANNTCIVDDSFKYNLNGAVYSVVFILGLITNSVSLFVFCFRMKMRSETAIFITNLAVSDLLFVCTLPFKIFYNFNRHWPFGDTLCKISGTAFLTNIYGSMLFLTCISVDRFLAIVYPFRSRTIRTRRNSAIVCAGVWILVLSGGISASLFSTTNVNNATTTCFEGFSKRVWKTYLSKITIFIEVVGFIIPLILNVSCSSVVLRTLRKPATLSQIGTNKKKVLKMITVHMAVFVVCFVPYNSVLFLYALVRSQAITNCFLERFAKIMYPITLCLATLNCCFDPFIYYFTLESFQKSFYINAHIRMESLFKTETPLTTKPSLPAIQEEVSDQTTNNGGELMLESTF
Source text: LPA family receptors are endogenous to cells of most organs. B103 rat neuroblastoma cells, known as LPA receptor-null cells (Valentine et al., Biochim Biophys Acta 1780. 597-605) were transiently transfected with a plasmid (vector) carrying one of genes coding for LPA1(edg-2), LPA2(edg-4), LPA3(edg-7), LPA4, LPA5 and LPA6 receptors or a plasmid carrying none of them (empty vector). Two or three days after transfection, the cells are suspended, and made permeable. Then, the permeable cells are treated with Fura-2AM, a fluorescent dye binding to calcium, and then with gintonin, followed by spectrofluorephotometry to examine whether gintonin induces an increase in intracellular free Ca^2+ level. […]

[3] = system: HUVECs; experiment: Scratch wound healing in HUVEC monolayers; assay type: cell-based, human; conditions: gintonin 30 μg/ml, 20 hrs
Procedure: In this Example, an examination was made of the effect of gintonin on wound healing. For use in this examination, HUVECs were cultured in an M199 medium supplemented with heat-inactivated 20% FBS, […] basic fibroblast growth factor, 5 units/ml heparin, and streptomycin and penicillin in a 5% […] incubator.
HUVECs (2.5×10^5/well) were seeded to 24-well plates, and incubated for 24 hrs, and then for an additional 6 hrs in M199 supplemented with 1% FBS. Single wounds were made in the confluent monolayers by dragging a sterile 200-μl pipette tip across the monolayer to create a cell-free path. Floating cells were washed off twice with M199 supplemented with 1% FBS. The adherent cells were incubated with gintonin (30 μg/ml). Before and after treatment with gintonin, HUVECs in each well were observed and photographed (100×) using an inverted fluorescence microscope (AxioVert200; Carl Zeiss, Germany). Morphological comparison with non-treated cells was made.
In the assay for wound healing of gintonin, uncovered wound areas were measured using AxioVision 4 (Carl Zeiss, Germany) (FIG. 26A), and the time process of covering the scratch wound areas was monitored in the presence or absence of gintonin (FIG. 25B). In addition, uncovered scratch areas of gintonin-treated groups were compared with that of the control and expressed as % of that of the control (FIGS. 26C and D).

[4] = biological target: LPA2 receptor (Homo sapiens, UniProt Q9HBW0); experiment: Intracellular free Ca2+ (Fura-2AM) in LPA2-expressing B103 cells; assay type: cell-based; set-up: host or cells: B103 rat neuroblastoma cells
Chain of LPA2 receptor (Q9HBW0 whole entry): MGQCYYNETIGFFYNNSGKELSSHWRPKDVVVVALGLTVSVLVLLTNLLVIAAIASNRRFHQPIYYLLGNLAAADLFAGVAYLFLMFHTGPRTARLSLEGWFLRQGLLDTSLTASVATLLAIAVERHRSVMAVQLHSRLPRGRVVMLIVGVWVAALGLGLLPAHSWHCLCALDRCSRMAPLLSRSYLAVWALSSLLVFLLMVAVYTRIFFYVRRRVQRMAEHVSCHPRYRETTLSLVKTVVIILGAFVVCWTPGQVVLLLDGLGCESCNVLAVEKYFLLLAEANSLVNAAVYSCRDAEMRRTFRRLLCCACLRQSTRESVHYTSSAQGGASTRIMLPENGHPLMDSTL
Source text: LPA family receptors are endogenous to cells of most organs. B103 rat neuroblastoma cells, known as LPA receptor-null cells (Valentine et al., Biochim Biophys Acta 1780. 597-605) were transiently transfected with a plasmid (vector) carrying one of genes coding for LPA1(edg-2), LPA2(edg-4), LPA3(edg-7), LPA4, LPA5 and LPA6 receptors or a plasmid carrying none of them (empty vector). Two or three days after transfection, the cells are suspended, and made permeable. Then, the permeable cells are treated with Fura-2AM, a fluorescent dye binding to calcium, and then with gintonin, followed by spectrofluorephotometry to examine whether gintonin induces an increase in intracellular free Ca^2+ level.
(1) preparing large quantities of plasmids carrying respective LPA family receptor genes and an empty plasmid carrying none of them through amplification and purification (maxi-preparation); (2) verifying the expression of LPA receptors wherein B103 cells are transfected with haematoglutin (HA)-tagged LPA receptors, and then subjected to Western blotting analysis using an anti-HA primary antibody and a horseradish peroxidase (HRP)-conjugated secondary antibody to develop a color; (3) verifying the expression of LPA receptors wherein B1-3 cells are transfected with haematoglutin (HA)-tagged LPA receptors, and then subjected to confocal laser microscopy using an anti-HA antibody and a fluorescence dye Cy3-conjugated secondary antibody; (4) transfecting the empty plasmid and each of the plasmids carrying LPA family receptor genes into B103 cells; (5) treating the transfected B103 cells with trypsin (0.05% trypsin with EDTA, w/v) 2-3 days post-transfection, to give a cell suspension; (6) culturing the suspended B103 cells with Fura-2AM (2.5 μM); and (7) treating the suspended B103 cells with gintonin and quantifying a change in intracellular free Ca^2+ level in a cuvette by spectrofluorephotometry using Fura-2AM.
Human LPA (lysophosphatidic acid) receptor subtypes, orphan GPCRs (G protein coupled receptors) and plasmids carrying GPCRs were purchased from Missouri S&T resource Center (www.cDNA.org).
The transient transfection of LPA receptor subtypes was carried out with the aid of Lipofectamine 2000 of Invitrogen. A plasmid (10.8 μg) carrying each LPA receptor (LPA1, LPA2, LPA3, LPA4, LPA5, and LPA6) was transfected into B103 cells grown in 10-cm dishes, and incubated for 2 days prior for use in experiments.
In this Example, gintonin, or ginsenoside Rb1 or Rg1 was examined for its ability to induce a transient increase of [Ca^2+]i in Fura-2AM-loaded B103 cells which were transfected with LPA receptors and in Fura-2AM-loaded B103 cells which were not transfected with LPA receptors. […]

[5] = busulfan 40 mg/kg i.p., gintonin 100 mg/kg oral
[6] = busulfan 40 mg/kg i.p., listed as Gintonin + Busulfan

B1: gintonin: ginseng-derived glycolipoprotein; structural protein of ginseng major latex-like protein (MLP151) and ribonuclease-like storage proteins; crude gintonin used in tests (protein)
chain 1: MGLTGKLICQTGIKSDGDVFHELFGTRPHHVPNITPANIQGCDLHEGEFGKVGSVVIWNYSIDGNAMIAKEEIVAIDEEDKSVTFKVVEGHLFEEFKSIVFSVHVDTKGEDNLVTWSIDYEKLNESVKDPTSYLDFLLSVTRDIEAHHLPK
chain 2: RSDYPWAMFALRLQWPAGFCEVNNACDTKSLLNTFTIHGLYPYNAKGTPALYCDGTAFDVNSVSDFLAEMHLAWPSHETNTEDIQFWEHEWKKHGRCSEALLKQTDYFRTALAFRKAFDIVGLLNQEGIYPNNDLYRPKMIKEAIKKHLNAVPEIDFTKNENSEYVLTDINVCVNQQATRFVDCPTDDATDDYRLKFVRLPSKMKFADPRTNSII
What does the source list for B1?
diarrhea morbidity rate [1, 5]: 20%; perianal mucositis morbidity [1, 5]: 13.3%; Diarrhea (cases / mice) ([1]; busulfan 40 mg/kg i.p.): 3; Mucositis (cases / mice) ([1]; busulfan 40 mg/kg i.p.): 2; Diarrhea (cases / mice) [1, 6]: 3/15; Mucositis (cases / mice) [1, 6]: 2/15; inhibition of busulfan-caused perianal mucositis ([1]; gintonin 100 mg/kg oral): 33.4%; reduction of busulfan-caused diarrhea ([1]; gintonin 100 mg/kg oral): more than 30%; increase in intracellular calcium level [2]: 61.6 ± 11.8 µM; covering of scratch wound area [3]: covered the wound area; EC50 ([4]; LPA2 receptor, B103 cells, read-out: EC50, LPA receptor-mediated intracellular calcium increase): 4 ± 0.4 pM; increase in intracellular calcium level ([4]; gintonin 1 μg/ml, LPA2-expressing B103 cells): 208.3 ± 13.0 µM
